In article PMC4338336:

T1: Msl5-(KH-QUA2) (Saccharomyces cerevisiae, UniProt Q12186 144-271)
T1 sequence: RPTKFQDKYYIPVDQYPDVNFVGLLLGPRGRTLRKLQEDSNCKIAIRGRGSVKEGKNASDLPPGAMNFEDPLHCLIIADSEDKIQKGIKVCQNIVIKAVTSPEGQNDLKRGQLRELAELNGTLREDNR


Columns and labels:
[1] = target: T1, Msl5-(KH-QUA2); test: EMSA
[2] = target: T1, Msl5-(KH-QUA2); test: EMSA; remark: listed apart in the source

Binder | binding result [1] | apparent K (half saturation) [2] [nM]
UAUACUAUCAA (ssRNA) [11-mer RNA A6U] | no binding | –
UAUACGAACAA (ssRNA) [11-mer RNA U4G] | no binding | –
UAUACUAACAA (ssRNA) [11-mer branchpoint RNA (WT)] | – | 140
UAUACCAACAA (ssRNA) [11-mer RNA U4C] | no binding | –
UAUACUAGCAA (ssRNA) [11-mer RNA A6G] | no binding | –
